Experimental data published in the nanobody polyreactivity screen of Harvey et al. (2022).

Test: yeast display, Sf9 membrane polyspecificity reagent, FACS + sequencing; frameworks hold sequencing errors
Procedure, shortened: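 A nanobody's polyreactivity label depends on the gate it was sorted from. Yeast display cells were stained with 10% biotinylated, detergent-solubilized Sf9 membrane reagent for 1 hour at 4 °C, enriched on streptavidin microbeads and sorted by FACS. The low and high (top ~1%) gates were set on anti-HA fluorescence for expression and streptavidin fluorescence for reagent binding.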

| Sequence | polyreactivity (PSR sort gate) |
| --- | --- |
| QVQLVESGGGLVQAGGSLRLSCAASGSIFLWNAMGWYRQAPGKERELVAAITWRGGRTSYADSVKGRFTISRDNAKNTVYLQMNSLKPEDTAVYYCAKEAHPPWTGQDVFRSYDYWGQGTQVTVSS | low polyreactivity |
| QVQLVESGGGIVQAGGSLRLSCAASGRTFYRNAMGWYRPAPGKERELFAVISLNGGRTYYADSVKGRFTISRDNAKNTVYLQMNSLKPEDTAVYYCNKLTGPVFTRGFYYWGQGTQVTVSS | high polyreactivity |
| QDQLVESGGGLVQAGGRLRLSSAASVSTFLPNTLGWYSQAHGKERELVADISWSGGSTYYADSVKGRLTISRDNAKNTVYLQMNRLKPEDTADSYCAADIASGYYWYDYWGQGTQVTVTS | low polyreactivity |
| QVQLVESGGGLVQAGGSLRLSCAASGFIFLHYAMGWYRKAPGKERELVAGIDSSVDSTFYADSVKGRFTISRDNAKNTVYLQMNSLKPEDTAVYYCAKDPDLDYYLYYYWGQGTQVTVSS | low polyreactivity |
| QVQLVESGGGLVQAGGSLRLSCAASGFIFAYYAMGWYRQAPGKERELVAAITWSGGITYYADSVKGRFTISRDNAKNTVYLQMNSLKPEDTAVYYCNRAWSSHRYYYWGQGTQVTVSS | high polyreactivity |
| QVQLVESGGGLVQAGGSLRLSCAASGSIFPGNAMGWYRQAPGKERELVASINWSGGSTYYADSVKGRFTISRDNANNTVYLQMNSLKPEDTAVYYCNADPGYYDYDYWGQGTQVTVSS | low polyreactivity |
| QVQLVESGGGLVQAGGSLRLSCAATGFTYYRNARGSYRQAPGKERELVAAISGSGGSTYYADSVKGRFTISRDNATNTVYLQMNSLKPEDTAVYYCAAAAGSYNSGNGYWGLGTQVTVSS | high polyreactivity |
| QVQLVESGGGLVQAGGSLRLSCAASGRTFYYSMGWYRQAPGKERYADSVKGRFTISRDNAKNTVYLQMNSLKPEDTAVYYCSAKVPEPPSLDESDYWGQGTQVTVSS | low polyreactivity |
| QVQLVESGGGLVQAGASLRLSCAASGSNFWFYAMGWYRQAPGKERELVAVISNSGSTYYADSVKGRFTFSRDNAQNTVYLQMNSLKAEDTAVYYCNKDGGGDSYWYDYWGQGTQVTVSS | low polyreactivity |
| QVQLVESGGGLVQAGGSLRLSCAASGSTLYYNAMGWYRQAPGKERELVAAISWSGGSTYYADSVKGRFTISRDNAKNTVYLQMNSLKPEDTAVYYCAADVNYYQHRLYYWGQGTQVTVSS | low polyreactivity |
| QVQLVESGGGLVQAGGSLRLSCAASGRTFKYYTMGWYRQAPGKERELVATISSSATSTYYADSVKGRFTISRDNAKNTVYLQMNSLKPEDTAVYYCAVERDYGWPIYIRWHFDYWGQGTQVTVSS | low polyreactivity |
| QVQLVESGGGLVQAGGSLRLSCAASGSILYWYAMGWYRQAPGKERELVAGIDWSGGSTYYADSVKGRFTISRDNAKNTVYLQMNSLKPEDTAVYYCNAVQNRGRGSHRGESTYYYWGQGTQVTVSS | low polyreactivity |
| QVQLVASGGGLVQAGGSLRLSCAASGSTFGSNAMGWYRQAPGKERELVAPINSGDSTSYADSVKGRFTISRDNAKNTVYLQMNSLKPEDTAVYYCATRYYTFVWRHDYWGQGTQVTVSS | low polyreactivity |
| QVQLVESGGGLVQAGGSLRLSCAASGSIFREYAMGWYRQAPGKERELVAAITKSGGRTYYADSVKGRFTISRDNAKNTVYLQMNSLKPEDTAVYYCAADSRNSRQHTSYNRLNYWGQGTQVTVSS | high polyreactivity |
| QVQLVESGGGLVQAGGSLRLSCAASGSNFTANAMGWYRQAPGKERELVAAISRSGGRTYYADSVKGRFTISRDNAKNTVYLQMNSLKPEDTAVYYCNVGRFNTSGYDYWGQGTQVTVSS | high polyreactivity |
| QVQLVESGGGLVQAGGSLRLSCDASGSIFGGYAMGWYRQAHGKARELVAGISSGGSTYYADSVKGRFTISRDNAKNTVYLQMNSLKPEDTAVYYCATSTYAYRRNSYYYTRPRFGYCGQGTQVTVSS | high polyreactivity |
| QVQLVESGGGLVQAGGSLRLSCAASGRTFYYNTMGWYRQAPWKEWELVAAISWRTGSTYYADSVKGRFSISRDNAKNTVYLQMKSLKPEDTAVYYCAAVLFGYPRTIGTWYDRYYYWGQGTQVTVSS | high polyreactivity |
| QVQLVESGGGLVQAGGSLRLSCAASGFIFRKYTMGWYRQAPGKERELVATIDSSGGSTYYADSVKGRFTISRDNAKNTVYLQMNSLKPEDTAVYYCNADLRELSPWYWYSGEMDYWGQGTQVTVSS | low polyreactivity |
| QVQLVESGGGFVQAGGSLRLSCAASGSIFDPYAMGWYIQAPGKERELVAAINWSGDSTYYADSVKGRFTISRDNAKNTVYLQMYSLKPEDTAVYYCAADPTDDTHLYYYWRQGTQVTVSS | low polyreactivity |
| QVQLLESGGGLVQAGASLRLSCAASGSIFLPNAMGWSRQAPGKERELVAAISWSGGSTYADSVKGRITISRDNAKNTVYLQMNILKPEDTAFYFCAADDGFTPRDLYVCYDYWGQGTQVTVSS | low polyreactivity |
| QVQLVESGGGLVQAGGSLRLSCAASGRIFGAYAMGWYRQAPGKEREFVAAITWRGGSTYYADSVKGRFTISRDNAKNTVYLQMNSLKPEDTAVYYCAADQFTGSVWAYYYWGQGTQVTVSS | high polyreactivity |
